The source of these data is patent publication US20210283212A1 (RA PHARMACEUTICALS, published 2021).

Where two headings read alike, the source gives them in different places. Positions of bridges follow the written chain, without caps; N, C: chain ends. Non-standard residues stand in square brackets, D forms with d. Primed or numbered codes have the meaning given here. No end group written: not given here. mXylyl(3) = bridging moiety between the two residues given in brackets; mXylyl″ = bridging moiety between the two marked residues; Trp(7-aza) = N[C@@H](Cc1c[nH]c2ncccc12)C(=O)O; mXylyl(4) = bridging moiety between residues; Phg = N[C@H](C(=O)O)c1ccccc1; NMeS = CN[C@@H](CO)C(=O)O; Nva = CCC[C@H](N)C(=O)O

What all share (assay): cell-based or functional assay
Test [1] has as its target T1, human C5 protein (human, UniProt P01031 19-673; P01031 678-1676).
The target in test [2] is T1, human C5 protein. The source holds these as a separate data set.
Test [3] concerns the target T1, human C5 protein. This is another data set of the same source.
The target in test [4] is T1, human C5 protein. This is another data set of the same source.
The target of a further test is primate C5 protein (primate, UniProt A0A2K5U1T1 19-673; A0A2K5U1T1 678-1676, Mature C5 is a disulfide-linked heterodimer of beta and alpha chains; it is glycosylated. The letters do not carry either feature.).
The target in test [5] is T1, human C5 protein. This is another data set of the same source.

Chain of primate C5 protein (beta, as listed by the source limits assumed, chain 1 of 2): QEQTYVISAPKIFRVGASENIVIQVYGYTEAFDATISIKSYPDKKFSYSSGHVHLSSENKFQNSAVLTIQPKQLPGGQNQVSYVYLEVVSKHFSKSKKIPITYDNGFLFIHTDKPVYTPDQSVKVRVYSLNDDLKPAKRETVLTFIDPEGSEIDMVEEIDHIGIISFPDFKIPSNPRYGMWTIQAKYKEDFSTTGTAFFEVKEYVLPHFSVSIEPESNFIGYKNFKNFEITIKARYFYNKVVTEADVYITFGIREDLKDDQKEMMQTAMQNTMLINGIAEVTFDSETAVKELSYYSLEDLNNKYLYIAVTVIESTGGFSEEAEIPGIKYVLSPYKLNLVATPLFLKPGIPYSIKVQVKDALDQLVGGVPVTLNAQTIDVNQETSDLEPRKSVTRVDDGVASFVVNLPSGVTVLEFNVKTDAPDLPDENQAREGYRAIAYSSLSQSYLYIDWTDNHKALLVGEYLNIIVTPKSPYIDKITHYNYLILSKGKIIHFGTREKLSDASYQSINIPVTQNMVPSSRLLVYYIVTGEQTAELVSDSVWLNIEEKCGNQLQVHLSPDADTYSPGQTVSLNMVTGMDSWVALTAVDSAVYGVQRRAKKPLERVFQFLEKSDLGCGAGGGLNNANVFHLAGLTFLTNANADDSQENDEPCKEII
Chain of primate C5 protein (alpha, as listed by the source limits assumed, chain 2 of 2): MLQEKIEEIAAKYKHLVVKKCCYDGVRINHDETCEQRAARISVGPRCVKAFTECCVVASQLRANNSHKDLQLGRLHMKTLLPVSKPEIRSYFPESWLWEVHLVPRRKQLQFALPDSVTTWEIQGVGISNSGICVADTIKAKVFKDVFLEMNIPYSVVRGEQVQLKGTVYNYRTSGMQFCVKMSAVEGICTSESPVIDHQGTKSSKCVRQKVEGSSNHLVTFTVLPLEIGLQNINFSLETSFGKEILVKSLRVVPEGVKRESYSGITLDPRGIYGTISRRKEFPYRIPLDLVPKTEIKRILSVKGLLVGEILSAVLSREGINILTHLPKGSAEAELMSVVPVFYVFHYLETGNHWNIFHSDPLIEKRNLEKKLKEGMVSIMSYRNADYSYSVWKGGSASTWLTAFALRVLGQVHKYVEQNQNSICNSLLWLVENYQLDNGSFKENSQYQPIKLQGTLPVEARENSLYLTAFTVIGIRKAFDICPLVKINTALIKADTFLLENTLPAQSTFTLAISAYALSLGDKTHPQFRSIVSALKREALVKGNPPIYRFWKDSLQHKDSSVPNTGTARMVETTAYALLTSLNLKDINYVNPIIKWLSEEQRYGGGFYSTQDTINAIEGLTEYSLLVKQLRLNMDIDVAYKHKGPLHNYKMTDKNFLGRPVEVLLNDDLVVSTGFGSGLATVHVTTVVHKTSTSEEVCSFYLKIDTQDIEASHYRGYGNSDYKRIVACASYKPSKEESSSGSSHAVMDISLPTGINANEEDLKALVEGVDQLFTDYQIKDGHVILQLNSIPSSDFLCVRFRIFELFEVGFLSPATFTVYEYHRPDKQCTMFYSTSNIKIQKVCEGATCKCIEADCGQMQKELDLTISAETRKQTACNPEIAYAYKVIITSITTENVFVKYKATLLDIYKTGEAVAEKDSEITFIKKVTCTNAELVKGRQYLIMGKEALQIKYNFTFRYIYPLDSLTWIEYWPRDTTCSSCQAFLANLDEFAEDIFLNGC

Regarding MCVERFCDV-NH2 (linker 2-7 via mXylyl(4)) [R3046], the “Avg. IC50, human hemolysis assay” value in the test with human C5 protein [1] was over 100000 nM. Also, the “Avg. IC50 (nM), human hemolysis assay” value with human C5 protein [2] was over 100000 nM.

As to MCVERFCDVY-NH2 (linker 2-7 via mXylyl(4)) [R3045], in the test with human C5 protein [1], the “Avg. IC50, human hemolysis assay” value was over 100000 nM. Moreover, in the test with human C5 protein [2], the “Avg. IC50 (nM), human hemolysis assay” value was over 100000 nM.

Turning to Ac-CVERFCVYWEF-NH2 (linker 1-6 via mXylyl(3)) [R3124], the “Avg. IC50, human hemolysis assay” value in the test with human C5 protein [1] was over 100000 nM. For the same molecule, in the test with human C5 protein [3], the “Avg. IC50 (nM), human hemolysis assay” value was over 100000 nM.

Turning to KVERFDDGYWEYPGK ([cyclo(1,6)]Ac-K-V-E-R-F-D-(N-Me)D-Tbg-Y-azaTrp-E-Y-P-Chg-(Lys-C16)) [R3183], in the test with human C5 protein [4], the “IC50, alternative pathway of complement activation (WIESLAB kit, serum samples)” value worked out at 12.5 nM and the “IC50, formation of the MAC (MAC EIA on human RBC hemolysis supernatant)” value amounted to 6.9 nM. Besides, the “IC50, hemolysis assay with 1% cynomolgus monkey serum” value with primate C5 protein worked out at 4.2 nM.

As to VCYENGYWEYPGV (Ac-Nvl-C-Y-E-N-Tbg-Y-azaTrp-E-Y-P-Phg-Nvl-NH2) [R3002], the “IC50, formation of C5a (C5a EIA on human RBC hemolysis supernatant)” value with human C5 protein [4] stood at 5.4 nM.

With MCVERFCDVYW-NH2 (linker 2-7 via mXylyl(4)) [R3044], the “Avg. IC50, human hemolysis assay” value with human C5 protein [1] is over 50000 nM. Also, the “Avg. IC50 (nM), human hemolysis assay” value with human C5 protein [2] is over 50000 nM.

Ac-[Nva]C[Phg]T[Trp(7-aza)]EY[NMeS]HC[Nva]P[Nva]-NH2 (linker 2-10 via mXylyl″) [R3008]: in the test with human C5 protein [4], the “IC50, formation of C5a (C5a EIA on human RBC hemolysis supernatant)” value is 54.5 nM and the “IC50, formation of the MAC (MAC EIA on human RBC hemolysis supernatant)” value was 33 nM. For the same molecule, the “Avg. IC50, human hemolysis assay” value with human C5 protein [1] came out at 97 nM. Besides, the “Avg. IC50 (nM), human hemolysis assay” value with human C5 protein [5] is 97 nM.

Take Ac-CVERFCDVYWEF-NH2 (linker 1-6 via mXylyl(4)) [R3048]: the “Avg. IC50, human hemolysis assay” value with human C5 protein [1] is 19.3 nM. In the test with human C5 protein [3], the “Avg. IC50 (nM), human hemolysis assay” value stood at 19.3 nM.

As for MCVERFCDVYWE-NH2 (linker 2-7 via mXylyl(4)) [R3043], in the test with human C5 protein [1], the “Avg. IC50, human hemolysis assay” value amounted to 934 nM. Further, in the test with human C5 protein [2], the “Avg. IC50 (nM), human hemolysis assay” value was found to be 934 nM.

With MCVERFC-NH2 (linker 2-7 via mXylyl(4)) [R3047], in the test with human C5 protein [1], the “Avg. IC50, human hemolysis assay” value is over 100000 nM. Moreover, the “Avg. IC50 (nM), human hemolysis assay” value with human C5 protein [2] was over 100000 nM.

Take Ac-CVERFCWEF-NH2 (linker 1-6 via mXylyl(3)) [R3125]: the “Avg. IC50, human hemolysis assay” value in the test with human C5 protein [1] is over 100000 nM. Moreover, the “Avg. IC50 (nM), human hemolysis assay” value in the test with human C5 protein [3] was over 100000 nM.
